{"source": "paper PMC5333127", "about": "“RD26 mediates crosstalk between drought and brassinosteroid signalling pathways” (Nature Communications, 2017)", "key": {"[1]": {"biological_target": "T1, MBP-BES1, full-length BES1 (BRI1 EMS SUPPRESSOR 1) (Arabidopsis, UniProt Q9LN63 1-335)", "T1 construct": "BES1 (BRI1 EMS SUPPRESSOR 1), BES1/BZR1 family transcription factor of Arabidopsis, full length; also called BES1 FL; source: recombinant protein, purified; pETMALc-H", "T1 sequence (looked up)": "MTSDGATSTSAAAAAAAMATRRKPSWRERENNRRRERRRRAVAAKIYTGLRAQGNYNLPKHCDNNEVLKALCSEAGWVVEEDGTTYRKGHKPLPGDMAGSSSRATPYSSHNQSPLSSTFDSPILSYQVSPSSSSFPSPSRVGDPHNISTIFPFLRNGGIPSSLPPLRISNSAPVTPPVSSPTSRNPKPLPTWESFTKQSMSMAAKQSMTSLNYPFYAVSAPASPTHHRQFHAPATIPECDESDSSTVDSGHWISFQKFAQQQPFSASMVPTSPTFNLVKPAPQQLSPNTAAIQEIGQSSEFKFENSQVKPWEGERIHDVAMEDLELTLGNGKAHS", "experiment": "pull-down; GST pull-down; GST-tagged RD26 (full length or 1-140) or GST as bait, MBP-tagged BES1 (full length or 1-89) as prey; MBP-BES1 detected by anti-MBP antibody; 20% input shown", "conditions": "both partners purified"}, "[2]": {"biological_target": "T2, GST-tagged RD26 DNA-binding/dimerization domain (aa 1-140) (Arabidopsis, UniProt Q93VY3 1-140)", "T2 construct": "also called RD26 (1-140); source: recombinant protein, purified; pET-42a (Novagen)", "T2 sequence (looked up)": "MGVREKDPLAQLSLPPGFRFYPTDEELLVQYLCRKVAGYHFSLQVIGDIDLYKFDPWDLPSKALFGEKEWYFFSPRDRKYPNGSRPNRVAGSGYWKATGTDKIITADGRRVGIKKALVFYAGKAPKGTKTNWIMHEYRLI", "experiment": "pull-down; GST pull-down; GST-tagged RD26 (full length or 1-140) or GST as bait, MBP-tagged BES1 (full length or 1-89) as prey; MBP-BES1 detected by anti-MBP antibody; 20% input shown", "conditions": "both partners purified"}, "BES1;RD26 (ANAC072) [3]": {"biological_target": "T3, BES1;RD26 (ANAC072) (Arabidopsis thaliana;Arabidopsis …, UniProt Q9LN63;Q93VY3 1-335;1-297, |)", "experiment": "EMSA; stronger than either protein alone; proposed heterodimer; 25 mM HEPES-KOH pH 8.0, 1 mM DTT, 50 mM KCl, 10% glycerol, 20 μl, about 0.2 ng probe, 40 min on ice; 5% native PAGE in 1x TGE", "conditions": "protein: recombinant;recombinant; copies: 1;1; label: 32P 5' end; blunt"}, "BES1": {"biological_target": "BES1 (Arabidopsis thaliana, UniProt Q9LN63 1-335)", "experiment": "EMSA; 25 mM HEPES-KOH pH 8.0, 1 mM DTT, 50 mM KCl, 10% glycerol, 20 μl, about 0.2 ng probe, 40 min on ice; 5% native PAGE in 1x TGE", "conditions": "protein: recombinant; chain copies: 2; label: 32P 5' end; blunt"}, "BES1;RD26 (ANAC072) [4]": {"biological_target": "T3, BES1;RD26 (ANAC072)", "experiment": "EMSA; 25 mM HEPES-KOH pH 8.0, 1 mM DTT, 50 mM KCl, 10% glycerol, 20 μl, about 0.2 ng probe, 40 min on ice; 5% native PAGE in 1x TGE", "conditions": "protein: recombinant;recombinant; copies: 1;1; label: 32P 5' end; blunt"}, "RD26 (ANAC072)": {"biological_target": "T4, RD26 (ANAC072) (Arabidopsis thaliana, UniProt Q93VY3 1-297)", "T4 sequence": "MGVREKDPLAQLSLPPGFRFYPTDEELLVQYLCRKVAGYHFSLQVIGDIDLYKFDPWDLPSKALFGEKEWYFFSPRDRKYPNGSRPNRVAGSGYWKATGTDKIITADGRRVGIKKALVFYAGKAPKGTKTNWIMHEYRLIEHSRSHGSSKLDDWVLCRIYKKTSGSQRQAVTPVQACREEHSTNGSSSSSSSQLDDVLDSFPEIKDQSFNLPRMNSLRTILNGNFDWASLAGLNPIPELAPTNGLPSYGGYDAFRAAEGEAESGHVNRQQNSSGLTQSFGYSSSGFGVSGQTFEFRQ", "experiment": "EMSA; 25 mM HEPES-KOH pH 8.0, 1 mM DTT, 50 mM KCl, 10% glycerol, 20 μl, about 0.2 ng probe, 40 min on ice; 5% native PAGE in 1x TGE", "conditions": "protein: recombinant; chain copies: 2; label: 32P 5' end; blunt"}, "BES1;RD26 (ANAC072) [5]": {"biological_target": "T3, BES1;RD26 (ANAC072)", "experiment": "EMSA; synergistic; proposed heterodimer; 25 mM HEPES-KOH pH 8.0, 1 mM DTT, 50 mM KCl, 10% glycerol, 20 μl, about 0.2 ng probe, 40 min on ice; 5% native PAGE in 1x TGE", "conditions": "protein: recombinant;recombinant; copies: 1;1; label: 32P 5' end; blunt"}}}
{"binder": "GST-RD26, full-length RD26 (RESPONSIVE TO …ON 26) (natural protein, Arabidopsis, UniProt Q93VY3 1-297, looked up, RD26 (ANAC072), NAC family transcription factor of Arabidopsis, full length; also called ANAC072; RD26 FL; source: recombinant protein, purified; pET-42a (Novagen)) MGVREKDPLAQLSLPPGFRFYPTDEELLVQYLCRKVAGYHFSLQVIGDIDLYKFDPWDLPSKALFGEKEWYFFSPRDRKYPNGSRPNRVAGSGYWKATGTDKIITADGRRVGIKKALVFYAGKAPKGTKTNWIMHEYRLIEHSRSHGSSKLDDWVLCRIYKKTSGSQRQAVTPVQACREEHSTNGSSSSSSSQLDDVLDSFPEIKDQSFNLPRMNSLRTILNGNFDWASLAGLNPIPELAPTNGLPSYGGYDAFRAAEGEAESGHVNRQQNSSGLTQSFGYSSSGFGVSGQTFEFRQ", "values": [{"measurement": "binding result", "setting": "[1]", "result": "binds"}]}
{"binder": "MBP-tagged BES1 DNA-binding/dimerization domain (aa 1-89) (domain or fragment, Arabidopsis, UniProt Q9LN63 1-89, looked up, also called BES1 (1-89); source: recombinant protein, purified; pETMALc-H) MTSDGATSTSAAAAAAAMATRRKPSWRERENNRRRERRRRAVAAKIYTGLRAQGNYNLPKHCDNNEVLKALCSEAGWVVEEDGTTYRKG", "values": [{"measurement": "binding result", "setting": "[2]", "result": "binds"}]}
{"binder": "At4g18010 BRRE WT (dsDNA) DNA 1: AAACCGAAAACACGTGTGAGAAAGAAGAAA DNA 2: TTTCTTCTTTCTCACACGTGTTTTCGGTTT", "values": [{"measurement": "binding result", "setting": "BES1;RD26 (ANAC072) [3]", "result": "binds"}, {"measurement": "binding result", "setting": "BES1", "result": "binds"}]}
{"binder": "At4g00360 E-box MU (dsDNA) DNA 1: ATTACCTAACTATAAAAAAATAATGTGTTC DNA 2: GAACACATTATTTTTTTATAGTTAGGTAAT", "values": [{"measurement": "binding result", "setting": "BES1;RD26 (ANAC072) [4]", "result": "no binding"}]}
{"binder": "At4g18010 BRRE MU (dsDNA) DNA 1: AAACCGAAAACATTTTTTAGAAAGAAGAAA DNA 2: TTTCTTCTTTCTAAAAAATGTTTTCGGTTT", "values": [{"measurement": "binding result", "setting": "BES1", "result": "no binding"}, {"measurement": "binding result", "setting": "BES1;RD26 (ANAC072) [4]", "result": "no binding"}, {"measurement": "binding result", "setting": "RD26 (ANAC072)", "result": "no binding"}]}
{"binder": "At4g00360 E-box WT (dsDNA) DNA 1: ATTACCTAACTATACATGTGTAATGTGTTC DNA 2: GAACACATTACACATGTATAGTTAGGTAAT", "values": [{"measurement": "binding result", "setting": "BES1;RD26 (ANAC072) [5]", "result": "binds"}, {"measurement": "binding result", "setting": "BES1", "result": "binds"}, {"measurement": "binding result", "setting": "RD26 (ANAC072)", "result": "binds"}]}
